Measured values: paper PMC9993842 (2023)

Target: LRP2 (megalin) (Mus musculus, UniProt A2ARV4)
Test: SPR

B1: RAP (receptor-associated protein) (protein)
chain: YSREKNQPKPSPKRESGEEFRMEKLNQLWEKAQRLHLPPVRLAELHADLKIQERDELAWKKLKLDGLDEDGEKEARLIRNLNVILAKYGLDGKKDARQVTSNSLSGTQEDGLDDPRLEKLWHKAKTSGKFSGEELDKLWREFLHHKEKVHEYNVLLETLSRTEEIHENVISPSDLSDIKGSVLHSRHTELKEKLRSINQGLDRLRRVSHQGYSTEAEFEEPRVIDLWDLAQSANLTDKELEAFREELKHFEAKIEKHNHYQKQLEIAHEKLRHAESVGDGERVSRSREKHALLEGRTKELGYTVKKHLQDLSGRISRARHNEL
Kd: 5.8 nM
